From patent US20260242507A1 (KITE PHARMA, published 2026)
Positions count from the first letter of the chain named.

Legend:
[1] = target: T1, recombinant human GPC3(Q25-H559)-6xHis (human, UniProt P51654 25-559); experiment: BLI (Octet Red96), scFv mFc captured on an AMC biosensor, rhGPC3 lot 2 at a single 500 nM concentration, 1:1 model
T1 construct: range 25-559; also called rhGPC3; RhGPC3

[2] = target: human GPC3 (glypican 3), full length, on cells (human) (UniProt P51654); experiment: cell-based or functional assay
Chain of human GPC3 (glypican 3), full length, on cells (human) (P51654 25-554 limits assumed): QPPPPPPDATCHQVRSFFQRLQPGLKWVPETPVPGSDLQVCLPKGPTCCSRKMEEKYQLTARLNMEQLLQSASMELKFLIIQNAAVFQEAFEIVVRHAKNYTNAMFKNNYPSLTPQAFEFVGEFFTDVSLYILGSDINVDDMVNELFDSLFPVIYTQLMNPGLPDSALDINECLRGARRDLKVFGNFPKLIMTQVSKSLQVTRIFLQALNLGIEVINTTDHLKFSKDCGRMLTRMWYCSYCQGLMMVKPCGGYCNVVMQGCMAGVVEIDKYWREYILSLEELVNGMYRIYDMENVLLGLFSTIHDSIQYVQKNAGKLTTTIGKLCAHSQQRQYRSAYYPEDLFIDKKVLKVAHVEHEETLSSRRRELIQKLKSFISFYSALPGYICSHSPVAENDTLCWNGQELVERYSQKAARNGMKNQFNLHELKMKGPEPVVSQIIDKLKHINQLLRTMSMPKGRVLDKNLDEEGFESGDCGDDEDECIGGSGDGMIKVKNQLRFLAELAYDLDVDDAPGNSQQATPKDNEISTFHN

[3] = target: mouse GPC3 overexpressed on K562 cells (mouse) (UniProt Q8CFZ4); experiment: cell-based or functional assay
Chain of mouse GPC3 overexpressed on K562 cells (mouse) (Q8CFZ4 25-579): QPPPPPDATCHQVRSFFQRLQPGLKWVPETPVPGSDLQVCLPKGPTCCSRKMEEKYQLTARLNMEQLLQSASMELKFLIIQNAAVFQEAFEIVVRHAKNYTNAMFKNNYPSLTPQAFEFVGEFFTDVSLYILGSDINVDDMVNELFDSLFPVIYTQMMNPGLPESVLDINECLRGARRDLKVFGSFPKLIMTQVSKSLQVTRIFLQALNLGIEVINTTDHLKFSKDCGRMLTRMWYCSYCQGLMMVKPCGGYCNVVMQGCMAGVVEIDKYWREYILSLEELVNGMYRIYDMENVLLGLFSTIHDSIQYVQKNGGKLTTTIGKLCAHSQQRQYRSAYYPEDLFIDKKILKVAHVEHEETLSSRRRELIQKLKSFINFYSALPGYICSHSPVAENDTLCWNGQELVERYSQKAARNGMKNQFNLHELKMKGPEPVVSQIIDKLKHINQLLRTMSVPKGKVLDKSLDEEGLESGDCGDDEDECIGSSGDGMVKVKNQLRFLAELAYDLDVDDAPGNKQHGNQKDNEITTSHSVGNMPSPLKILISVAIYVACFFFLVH

[4] = target: T2, human GPC5 overexpressed on K562 cells (human) (UniProt P78333); experiment: cell-based or functional assay
T2 sequence (looked up): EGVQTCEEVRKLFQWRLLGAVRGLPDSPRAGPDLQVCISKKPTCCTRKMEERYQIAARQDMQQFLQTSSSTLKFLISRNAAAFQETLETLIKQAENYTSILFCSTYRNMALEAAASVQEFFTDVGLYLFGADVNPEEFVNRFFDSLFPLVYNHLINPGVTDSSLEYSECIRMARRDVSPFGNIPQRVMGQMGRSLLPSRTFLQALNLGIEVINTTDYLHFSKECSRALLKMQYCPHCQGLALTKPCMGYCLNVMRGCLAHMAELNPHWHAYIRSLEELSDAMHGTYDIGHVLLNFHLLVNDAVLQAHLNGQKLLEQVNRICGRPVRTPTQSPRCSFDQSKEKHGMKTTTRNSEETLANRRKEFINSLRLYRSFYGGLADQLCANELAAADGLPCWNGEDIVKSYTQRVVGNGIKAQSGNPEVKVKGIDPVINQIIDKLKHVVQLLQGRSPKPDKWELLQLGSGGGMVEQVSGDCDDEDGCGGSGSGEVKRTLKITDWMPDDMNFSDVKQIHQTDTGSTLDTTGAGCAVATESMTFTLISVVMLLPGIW

[5] = target: T1, recombinant human GPC3(Q25-H559)-6xHis; experiment: BLI (Octet Red96), scFv-Fc captured on AMC biosensors, rhGPC3 lot 1 as analyte, 1:1 model, global fit
Procedure: (§1) A kinetics constant for mAb1-1 scFv mFc binding to its target, GPC3, was determined using a Sartorius Octet Red96 with AMC biosensors. mAb1-1 scFv-Fc was diluted to 2 ug/mL and captured onto 7 AMC biosensor tips under agitation. One biosensor was left blank as a reference. Two lots of recombinant human GPC3(Q25-H559)-6×His (rhGPC3) at 464.3, 154.8, 51.59, 17.2, 5.73, 1.911 and 0 nM were used as analytes. The association phase was measured for 90 sec and the dissociation was measured for 120 sec. All measurements were corrected for baseline drift by subtracting a control sensor exposed to running buffer only. The data were analyzed using a 1:1 interaction model with global fitting for each analyte lot separately, using Octet analysis software.

[6] = target: T1, recombinant human GPC3(Q25-H559)-6xHis; experiment: BLI (Octet Red96), scFv-Fc captured on AMC biosensors, rhGPC3 lot 2 as analyte, 1:1 model, global fit
Procedure: as §1

T1 sequence (P51654 other isoform, or with tags, fused parts or gaps limits assumed, form in doubt): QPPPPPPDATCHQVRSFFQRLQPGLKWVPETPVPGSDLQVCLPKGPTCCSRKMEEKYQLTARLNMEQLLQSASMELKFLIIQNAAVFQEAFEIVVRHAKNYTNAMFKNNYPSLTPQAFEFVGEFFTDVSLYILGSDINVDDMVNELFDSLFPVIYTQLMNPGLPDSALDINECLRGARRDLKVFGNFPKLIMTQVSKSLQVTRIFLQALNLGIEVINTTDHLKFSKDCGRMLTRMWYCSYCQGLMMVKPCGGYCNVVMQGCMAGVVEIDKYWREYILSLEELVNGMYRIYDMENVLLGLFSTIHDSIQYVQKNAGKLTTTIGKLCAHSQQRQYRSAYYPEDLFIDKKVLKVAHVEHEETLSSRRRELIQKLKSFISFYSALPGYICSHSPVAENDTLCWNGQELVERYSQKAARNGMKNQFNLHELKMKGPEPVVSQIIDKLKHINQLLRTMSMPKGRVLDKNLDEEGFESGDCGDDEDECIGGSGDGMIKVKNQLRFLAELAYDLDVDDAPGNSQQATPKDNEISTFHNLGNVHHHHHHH

**Q.** YP7 scFv mFc (Fc fusion) was tested. Which Kd [1] did it give?
**A.** The Kd was 8.73 nM.

**Q.** And the koff [1]?
**A.** Its koff is 0.000675 s⁻¹.

**Q.** And the kon [1]?
**A.** Its kon is 77300 M⁻¹ s⁻¹.

B1: hmAb1-2 CAR (protein, part only; not given: hinge, transmembrane and signaling domains, part only)
chain, part: QVQLVQSGAEVKKPGASVKVSCKASGYTFTDYYIHWVRQAPGQGLEWMGEIYPGSGNTYYAQKFQGRVTMTRDTSTSTVYMELSSLRSEDTAVYYCARGNDYDAWFVYWGQGTLVTVSSGSTSGSGKPGSGEGSTKGDIVMTQSPDSLAVSLGERATINCKSSQSLLNSGTRKNYLAWYQQKPGQPPKLLIYWASIRESGVPDRFSGSGSGTDFTLTISSLQAEDVAVYYCKQSYSLYTFGQGTKLEIK
**Q.** Which % cytolysis of Hep3B at 164h, xCELLigence, 500 CAR T cells, Donor 1 [2] does the source give for B1 here?
**A.** The % cytolysis of Hep3B at 164h, xCELLigence, 500 CAR T cells, Donor 1 was 95.7%.

**Q.** What about the % cytolysis of Hep3B at 164h, xCELLigence, 500 CAR T cells, Donor 2 [2] of the same molecule?
**A.** The % cytolysis of Hep3B at 164h, xCELLigence, 500 CAR T cells, Donor 2 was 91.3%.

**Q.** And the % dead target cells, flow cytometry, 48h, Hep3B [2]?
**A.** Its % dead target cells, flow cytometry, 48h, Hep3B is 89.4%.

**Q.** What about the % dead target cells, flow cytometry, 48h, K562-mouse GPC3 [3] of the same molecule?
**A.** The % dead target cells, flow cytometry, 48h, K562-mouse GPC3 was 48.3%.

**Q.** And the % dead target cells, flow cytometry, 48h, K562-human GPC5 [4]?
**A.** Its % dead target cells, flow cytometry, 48h, K562-human GPC5 is 18.2%.

B2: hmAb1-3 CAR (protein, part only; not given: hinge, transmembrane and signaling domains, part only)
chain, part: B1 chain, part with A24T, R72A, V79A
**Q.** How did the % cytolysis of Hep3B at 164h, xCELLigence, 500 CAR T cells, Donor 1 [2] turn out when B2 was run?
**A.** Its % cytolysis of Hep3B at 164h, xCELLigence, 500 CAR T cells, Donor 1 is 97.1%.

**Q.** And the % cytolysis of Hep3B at 164h, xCELLigence, 500 CAR T cells, Donor 2 [2]?
**A.** The % cytolysis of Hep3B at 164h, xCELLigence, 500 CAR T cells, Donor 2 was 89.4%.

**Q.** And the % dead target cells, flow cytometry, 48h, Hep3B [2]?
**A.** Its % dead target cells, flow cytometry, 48h, Hep3B is 89.9%.

**Q.** And the % dead target cells, flow cytometry, 48h, K562-mouse GPC3 [3]?
**A.** Its % dead target cells, flow cytometry, 48h, K562-mouse GPC3 is 50.5%.

**Q.** What about the % dead target cells, flow cytometry, 48h, K562-human GPC5 [4] of the same molecule?
**A.** The % dead target cells, flow cytometry, 48h, K562-human GPC5 was 16.3%.

B3: hmAb1-1 CAR (protein, part only; not given: hinge, transmembrane and signaling domains, part only)
chain, part: B1 chain, part with A24T, R72A, V79A, A156V, I158M, L221V
**Q.** Which % cytolysis of Hep3B at 164h, xCELLigence, 500 CAR T cells, Donor 1 [2] does the source give for B3 here?
**A.** The % cytolysis of Hep3B at 164h, xCELLigence, 500 CAR T cells, Donor 1 was 96.4%.

**Q.** And the % cytolysis of Hep3B at 164h, xCELLigence, 500 CAR T cells, Donor 2 [2]?
**A.** The % cytolysis of Hep3B at 164h, xCELLigence, 500 CAR T cells, Donor 2 was 93.4%.

**Q.** And the % dead target cells, flow cytometry, 48h, Hep3B [2]?
**A.** Its % dead target cells, flow cytometry, 48h, Hep3B is 91.1%.

**Q.** What about the % dead target cells, flow cytometry, 48h, K562-mouse GPC3 [3] of the same molecule?
**A.** The % dead target cells, flow cytometry, 48h, K562-mouse GPC3 was 53.9%.

**Q.** What about the % dead target cells, flow cytometry, 48h, K562-human GPC5 [4] of the same molecule?
**A.** The % dead target cells, flow cytometry, 48h, K562-human GPC5 was 17.7%.

B4: hmAb1-4 CAR (protein, part only; not given: hinge, transmembrane and signaling domains, part only)
chain, part: B1 chain, part with A24T, M48I, V68A, M70L, R72A, V79A, L83F
**Q.** For B4, which % cytolysis of Hep3B at 164h, xCELLigence, 500 CAR T cells, Donor 1 [2] is on record?
**A.** Its % cytolysis of Hep3B at 164h, xCELLigence, 500 CAR T cells, Donor 1 is 94.9%.

**Q.** And the % cytolysis of Hep3B at 164h, xCELLigence, 500 CAR T cells, Donor 2 [2]?
**A.** The % cytolysis of Hep3B at 164h, xCELLigence, 500 CAR T cells, Donor 2 was 89.6%.

**Q.** What about the % dead target cells, flow cytometry, 48h, Hep3B [2] of the same molecule?
**A.** The % dead target cells, flow cytometry, 48h, Hep3B was 89.8%.

**Q.** And the % dead target cells, flow cytometry, 48h, K562-mouse GPC3 [3]?
**A.** Its % dead target cells, flow cytometry, 48h, K562-mouse GPC3 is 52.7%.

**Q.** What about the % dead target cells, flow cytometry, 48h, K562-human GPC5 [4] of the same molecule?
**A.** The % dead target cells, flow cytometry, 48h, K562-human GPC5 was 16.4%.

B5: hmAb1-5 CAR (protein, part only; not given: hinge, transmembrane and signaling domains, part only)
chain, part: B1 chain, part with A24T, M48I, V68A, M70L, R72A, V79A, L83F, A156V, I158M, L221V
**Q.** With B5 as the molecule, how does the % cytolysis of Hep3B at 164h, xCELLigence, 500 CAR T cells, Donor 1 [2] read?
**A.** Its % cytolysis of Hep3B at 164h, xCELLigence, 500 CAR T cells, Donor 1 is 99.3%.

**Q.** What about the % cytolysis of Hep3B at 164h, xCELLigence, 500 CAR T cells, Donor 2 [2] of the same molecule?
**A.** Its % cytolysis of Hep3B at 164h, xCELLigence, 500 CAR T cells, Donor 2 is 95%.

**Q.** And the % dead target cells, flow cytometry, 48h, Hep3B [2]?
**A.** The % dead target cells, flow cytometry, 48h, Hep3B was 90.5%.

**Q.** What about the % dead target cells, flow cytometry, 48h, K562-mouse GPC3 [3] of the same molecule?
**A.** The % dead target cells, flow cytometry, 48h, K562-mouse GPC3 was 52.9%.

**Q.** And the % dead target cells, flow cytometry, 48h, K562-human GPC5 [4]?
**A.** Its % dead target cells, flow cytometry, 48h, K562-human GPC5 is 18.5%.

B6: mAb1-1_DNR2 CAR (mAb1-1 CAR co-expressed with TGFbDNR2) (protein, part only; not given: CAR signaling domains and DN TGFbR2, part only)
chain, part: B1 chain, part with A24T, R72A, V79A, A156V, I158M, L221V
**Q.** How did the % cytolysis, xCELLigence, Hep3B, High E:T (1,000 CAR T cells) [2] turn out when B6 was run?
**A.** The % cytolysis, xCELLigence, Hep3B, High E:T (1,000 CAR T cells) was 100%.

**Q.** What about the % cytolysis, xCELLigence, Hep3B, Low E:T (500 CAR T cells) [2] of the same molecule?
**A.** Its % cytolysis, xCELLigence, Hep3B, Low E:T (500 CAR T cells) is 99%.

**Q.** And the % cytolysis, xCELLigence, Huh7, High E:T (10,000 CAR T cells) [2]?
**A.** Its % cytolysis, xCELLigence, Huh7, High E:T (10,000 CAR T cells) is 100%.

**Q.** What about the % cytolysis, xCELLigence, Huh7, Low E:T (500 CAR T cells) [2] of the same molecule?
**A.** The % cytolysis, xCELLigence, Huh7, Low E:T (500 CAR T cells) was 44%.

**Q.** And the IFNg secretion after 24 h coculture with Hep3B, Luminex, replicate 1 [2]?
**A.** The IFNg secretion after 24 h coculture with Hep3B, Luminex, replicate 1 was 37700 pg/mL.

**Q.** And the IFNg secretion after 24 h coculture with Hep3B, Luminex, replicate 2 [2]?
**A.** The IFNg secretion after 24 h coculture with Hep3B, Luminex, replicate 2 was 39400 pg/mL.

**Q.** What about the IFNg secretion after 24 h coculture with Hep3B, Luminex, replicate 3 [2] of the same molecule?
**A.** Its IFNg secretion after 24 h coculture with Hep3B, Luminex, replicate 3 is 44500 pg/mL.

B7: mAb1-1 scFv-Fc (single chain variable fragment fused to a murine IgG2A fragment crystallizable domain) (Fc fusion)
chain: B1 chain, part with A24T, R72A, V79A, A156V, I158M, L221V
notes: also called mAb1-1 scFv mFc; not shown: murine IgG2A fragment crystallizable (Fc) domain
**Q.** For B7, which Kd [5] is on record?
**A.** Its Kd is 32.7 nM.

**Q.** What about the koff [5] of the same molecule?
**A.** The koff was 0.00712 s⁻¹.

**Q.** What about the kon [5] of the same molecule?
**A.** The kon was 218000 M⁻¹ s⁻¹.

**Q.** And the Kd [6]?
**A.** Its Kd is 35.2 nM.

**Q.** What about the koff [6] of the same molecule?
**A.** Its koff is 0.00785 s⁻¹.

**Q.** And the kon [6]?
**A.** Its kon is 223000 M⁻¹ s⁻¹.
